B1: mRNA-splicing (parent)
chain: AGUUGCUGCUGGGAGCUCCAGCACAGUGAAAUGGACAGAAGGGCAGAGCAA

Variants of: B1
Assay: exon inclusion enrichment index; higher = more inclusion; WT1 exon 5 minigene, HEK293

Variant | exon inclusion enrichment index
AGUUCGCGCCGGGAGCUCCAGCGGAGUGAAAUGGACAGAAGGGCAGAGCAA [G5C C6G U7C U10C A23G C24G] | 4.88
AGUUCCGACAGGGAGCUCCAGCACAGUGAAAUGGACAGAAGGGCAGAGCAA [G5C U7G G8A U10A] | 0.113
AGUUCACACAGGGAGCUCCAGCACAGUGAAAUGGAAAGAAGGGCAGAGCAA [G5C C6A U7C G8A U10A C36A] | 0.0935
AGUUUCUUUUGGGAGCUCCAGCACAGUGAAAUGGUGAGAAGGGCAGAGCAA [G5U G8U C9U A35U C36G] | 0.0125
AGUUGACGACGGGAGCUCCAGCCAAGUGAAAUGGACAGAAGGGCAGAGCAA [C6A U7C C9A U10C A23C C24A] | 3.49
AGUUCACAGCGGGAGCUCCAGCACAGUGAAAUGGACAGAAGGGCAGAGCAA [G5C C6A U7C G8A C9G U10C] | 1.42
AGUUACCACCGGGAGCUCCAGCACAGUGAAAUGGACAGAAGGGCAAUGCAA [G5A U7C G8A U10C G46A A47U] | 2.29
AGUUAUAUAUGGGAGCUCCAGCACAAAGAAAUGGACAGAAGGGCAGAGCAA [G5A C6U U7A G8U C9A G26A U27A] | 0.122
AGUUGAAGAAGGGAGCUCCAGCACAGUAAAAUGGACAGAAGGGCAGAGCAA [C6A U7A C9A U10A G28A] | 0.174
AGUUGACGACCUGAGCUCCAGCACAGUGAAAUGGACAGAAGGGCAGAGCAA [C6A U7C C9A U10C G11C G12U] | 2.2
AGUUUCUUUUGGGAGCUCCAGCACAGUGAAAUGGAUCGAAGGGCAGAGCAA [G5U G8U C9U C36U A37C] | 0.0658
AGUUACCACCGGGAGCUCCUCCACAGUGAAAUGGACAGAAGGGCAGAGCAA [G5A U7C G8A U10C A20U G21C] | 2.33
AGUUCAAACAGGGAGCUCCAGCACAGUGAAAUGGACAGAAGGGCAGAGCAA [G5C C6A U7A G8A U10A] | 0.0993
AGUUCUUCUCGGGAGCUCCAGCACGCUGAAAUGGACAGAAGGGCAGAGCAA [G5C C6U G8C C9U U10C A25G G26C] | 3.56
AGUUACCACCGGGAGCUCCAGCACAGUGAAAUGGACAGAAGGGCGCAGCAA [G5A U7C G8A U10C A45G G46C] | 3.06
AGUUAUAUAUGGGAGCUCCAGCACAGUGAAAUGUGCAGAAGGGCAGAGCAA [G5A C6U U7A G8U C9A G34U A35G] | 0.014
AGUUUCUUUUGGUAGCUCCAGCACAGUGAAAUGGACAGAAGGGCAGAGCAA [G5U G8U C9U G13U] | 0.00294
AGUUUCUUUUGGGAGCUCCAGCACAGUGAAAUGGUCAGAAGGGCAGAGCAA [G5U G8U C9U A35U] | 0.0145
AGUUCACACAGGGAGCUCCAGCACAGUGAAAUGGACAGUAGGGCAGAGCAA [G5C C6A U7C G8A U10A A39U] | 0.00393
AGUUAUAUAUGGGAGCUCCAGCACAGUGAAGAGGACAGAAGGGCAGAGCAA [G5A C6U U7A G8U C9A A31G U32A] | 0.855
AGUUAGGGAUGGGAGCUCCAGCACAGUGAAAUGGACAGAAGGUCAGAGCAA [G5A C6G U7G C9A G43U] | 0.00185
AGUUUCUUUUGGCUGCUCCAGCACAGUGAAAUGGACAGAAGGGCAGAGCAA [G5U G8U C9U G13C A14U] | 0.1
AGUUGAAGAAGGGAGCUCCAGCACAUCGAAAUGGACAGAAGGGCAGAGCAA [C6A U7A C9A U10A G26U U27C] | 2.22
AGUUCACACAGGGAGCUCCAGCACAGUACAAUGGACAGAAGGGCAGAGCAA [G5C C6A U7C G8A U10A G28A A29C] | 0.0469
AGUUGACGACGGGAGCUCCAGCACAGUGAACAGGACAGAAGGGCAGAGCAA [C6A U7C C9A U10C A31C U32A] | 2.78
AGUUCACACAGGGAACUCCAGCACAGUGAAAUGGACAGAAGGGCAGAGCAA [G5C C6A U7C G8A U10A G15A] | 0.0449

Variant | exon inclusion enrichment index
AGUAAUUCUCGGGAGCUCCAGCACAGUGAAAUGGACAGAAGGGCAGAGCAA [U4A G5A C6U G8C C9U U10C] | 0.574
AGUUAUAUACGGGAGCUCCAGCACAGUGAAAUGGACAGAAGGGCAGAGCAA [G5A C6U U7A G8U C9A U10C] | 0.4
AGUUCGCGCCGACAGCUCCAGCACAGUGAAAUGGACAGAAGGGCAGAGCAA [G5C C6G U7C U10C G12A G13C] | 1.55
AGUUGACGACGGGAGCUCCAGCACAGUGAAAUGGACCAAAGGGCAGAGCAA [C6A U7C C9A U10C A37C G38A] | 2.46
AGUUGCUGCUGACAGCUCCAGCACAGUGAAAUGGACAGAAGGGCAGAGCAA [G12A G13C] | 1.2
AUUUCUUCUCGGGAGCUCCAGCACAGUGAAAUGGACAGAAGGGCAGAGCAA [G2U G5C C6U G8C C9U U10C] | 3.26
AGUUCUUCUCGGGAGACCCAGCACAGUGAAAUGGACAGAAGGGCAGAGCAA [G5C C6U G8C C9U U10C C16A U17C] | 1.6
AGUUACCACCGGGAGCUCCAGCACAGUGAAAUGGGAAGAAGGGCAGAGCAA [G5A U7C G8A U10C A35G C36A] | 1.29
AGUCAAAGAAGGGAGCUCCAGCACAGUGAAAUGGACAGAAGGGCAGAGCAA [U4C G5A C6A U7A C9A U10A] | 0.662
AGUUCACACAGGGUACUCCAGCACAGUGAAAUGGACAGAAGGGCAGAGCAA [G5C C6A U7C G8A U10A A14U G15A] | 0.00771
AGUUAGGGAUGGGAGCUCCAGCACAAUGAAAUGGACAGAAGGGCAGAGCAA [G5A C6G U7G C9A G26A] | 0.00477
AGUUGAAGAAGGGAGCUCCGUCACAGUGAAAUGGACAGAAGGGCAGAGCAA [C6A U7A C9A U10A A20G G21U] | 0.779
AGUUGAAGAAGGGAGCUCCAGCACAGUGAAAUGGACAGAAGGGGCGAGCAA [C6A U7A C9A U10A C44G A45C] | 1.44
AGUUUCUUUUGGGAGCUCCAGCUGAGUGAAAUGGACAGAAGGGCAGAGCAA [G5U G8U C9U A23U C24G] | 0.223
AGUUGACGACGGGAGCUCCAGCACAGUGAAAUGGCCAGAAGGGCAGAGCAA [C6A U7C C9A U10C A35C] | 1.54
AGUUGACGACGGGAGCUCCAGCACAGUGACUUGGACAGAAGGGCAGAGCAA [C6A U7C C9A U10C A30C A31U] | 3.15
AGUUUCUUUUGGGAGCUCCAGUCCAGUGAAAUGGACAGAAGGGCAGAGCAA [G5U G8U C9U C22U A23C] | 0.0522
AGUUCGCGCCGGGAGCUCCAGCACAGUGAAAUGGACAGCUGGGCAGAGCAA [G5C C6G U7C U10C A39C A40U] | 1.72
AGUUGCUGCUGGGAGCUCCAGUUCAGUGAAAUGGACAGAAGGGCAGAGCAA [C22U A23U] | 1.19
AGUUAGGGAUGGGAGCUCCAGCCCAGUGAAAUGGACAGAAGGGCAGAGCAA [G5A C6G U7G C9A A23C] | 0.00491
AGUUAGGGACAGGAGCUCCAGCACAGUGAAAUGGACAGAAGGGCAGAGCAA [G5A C6G U7G C9A U10C G11A] | 0.0011
AGUUUCUUUUGGGAGCUCCAGCACAGUGAAAUGGACAGAAGGGCGUAGCAA [G5U G8U C9U A45G G46U] | 0.0933
AGUUACCACCCCGAGCUCCAGCACAGUGAAAUGGACAGAAGGGCAGAGCAA [G5A U7C G8A U10C G11C G12C] | 0.415
AGUUCACAAUGGGAGCUCCAGCACAGUGAAAUGGACAGAAGGGCAGAGCAA [G5C C6A U7C G8A C9A] | 0.746
AGUUGCUGCUGGGAGCUCCAGCACAGUCUAAUGGACAGAAGGGCAGAGCAA [G28C A29U] | 0.0556
